From paper PMC11088876 (2024) come the findings set out here.

Assay [1] concerns the target T1, Recombinant human ActRIIB-Fc (human, UniProt Q13705 19-137).
T1 chain: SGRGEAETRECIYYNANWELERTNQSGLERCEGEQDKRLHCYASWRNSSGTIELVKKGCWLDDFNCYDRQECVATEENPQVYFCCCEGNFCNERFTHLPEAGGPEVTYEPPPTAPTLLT
The experiment in a line: SPR.

In assay [2] the target is Recombinant human ActRIIA-Fc (human, UniProt P27037 20-135). The experiment in a line: SPR.
Recombinant human ActRIIA-Fc, sequence (P27037 20-135): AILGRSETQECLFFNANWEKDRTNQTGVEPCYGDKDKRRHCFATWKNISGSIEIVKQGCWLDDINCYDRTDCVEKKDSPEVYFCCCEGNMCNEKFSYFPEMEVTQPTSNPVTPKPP

B1: Recombinant human ActE (bacterially derived, provided by R&D Systems) (ligand)
chain: TPTCEPATPLCCRRDHYVDFQELGWRDWILQPEGYQLNYCSGQCPPHLAGSPGIAASFHSAVFSLLKANNPWPASTSCCVPTARRPLSLLYLDHNGNVVKTDVPDMVVEACGCS
In the case of B1, the Kd in assay [1] was 20 nM; in assay [2], 5 nM.
